# Assay results taken from patent US20150352207A1, “USE OF ANTIBODIES AGAINST ICAM-1 IN COMBINATION WITH AN ANTI CANCER DRUG IN THE TREATMENT OF PATIENTS” (BIOINVENT INTERNATIONAL AB, priority 2013, published 2015).
# B1: IgG B11: novel human ICAM-1 antibody targeting the B11 epitope, isolated from the naïve antibody library n-CoDeR (antibody, V domains shown)
# VH: EVQLLESGGGLVQPGGSLRLSCAASGFTFSNAWMSWVRQAPGKGLEWVAFIWYDGSNKYYADSVKGRFTISRDNSKNTLYLQMNSLRAEDTAVYYCARYSGWYFDYWGQGTLVTVSS
# VL: QSVLTQPPSASGTPGQRVTISCTGSSSNIGAGYDVHWYQQLPGTAPKLLIYDNNNRPSGVPDRFSGSKSGTSASLAISGLRSEDEADYYCQSYDSSLSAWLFGGGTKLTVLG
# modifications: B11 antibody variable H region; B11 antibody variable L region
# Tests used:
# mouse FcγRIV = target: T1, mouse FcγRIV (Mus musculus, UniProt A0A0B4J1G0); assay: B11 isotype variant binding to FcγR (Biacore), mouse FcγRIV
# T1 construct: made in house; host or cells: HEK293E (transient, adherent)
# T1 sequence (A0A0B4J1G0 21-249): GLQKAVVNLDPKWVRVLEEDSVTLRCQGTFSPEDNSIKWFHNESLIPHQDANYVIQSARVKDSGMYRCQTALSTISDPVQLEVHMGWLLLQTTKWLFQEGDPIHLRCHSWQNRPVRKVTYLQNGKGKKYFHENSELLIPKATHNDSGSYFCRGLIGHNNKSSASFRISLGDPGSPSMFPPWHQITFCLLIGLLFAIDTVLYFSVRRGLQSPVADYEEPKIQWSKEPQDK
# Procedure: His-tagged human FcγRIIIa or mouse FcγRIV were expressed transient in adherent HEK293E cells, purified using Ni-NTA chromatography and characterized using SDS-PAGE and/or Biacore. Surface plasmon resonance (SPR) measurements were performed using a Biacore 3000 instrument. Goat α-human-F(ab)′2 F(ab)′2 fragment (Jackson laboratories) was immobilised with a CM-5 chip using a standard amine coupling protocol. IgG1 B11, IgG4 B11, or 297Q B11 were diluted to 15 and 60 μg/mL respectively and added to the surface at […] for 3 min. His tagged human FcγRIIIa or mouse FcγRIV were pre-incubated with an α-HIS antibody (R&D Systems) at a 2:1 molar ratio before addition to the chip surface, 30 μL/min, 1 min. After each cycle the surface was regenerated twice with glycine buffer pH 1.7.
# Daudi cells = assay: Subcutaneous scid/Daudi non-Hodgkin lymphoma xenograft; format: in vivo, scid mice; details: twice weekly i.p. from day 1
# [1] = test system: B lymphoma cell line (CL-01); assay: Antibody-dependent cell-mediated cytotoxicity (ADCC) with natural killer effector cells; format: cell-based; details: human Natural Killer effector cells
# Excerpt: Buffy coats from human donors (ordered through Blodcentralen, Lund) were used to isolate peripheral blood mononuclear cells (PBMCs), and subsequently NK cells. Briefly, peripheral blood components were separated using Ficoll Paque PLUS (Amersham Biosciences, Sweden) in LeucoSep tubes (Greiner Bio-One). The PBMC fraction was removed and thoroughly washed in ice-cold DPBS (Invitrogen), before magnetic labeling and separation of the NK cell population using positive or negative NK cell isolation kits and MACS LS columns (Miltenyi Biotec). The purity of the obtained NK cell fractions was analyzed using flow cytometry, after staining with α-CD56 antibodies (BD Biosciences). Target cells were harvested, and incubated in medium with or without the respective antibodies (2 μg/mL) for 60 min on ice. Cells were thereafter washed and resuspended in cold medium before dispension into FACS tubes. Subsequently, isolated NK cells were diluted in ADCC medium and dispensed together with the respective antibody-coated target cells at varying effector/target cell ratios (40:1, 20:1, 5:1 and 1:1). All experiments were performed in triplicates. After completed incubation ToPo-Pro-3 dye and counting beads (Invitrogen) were added and cells were analyzed for membrane permeabilization using flow cytometry.
# EJM myeloma cells = assay: Subcutaneous scid myeloma xenograft, EJM; format: in vivo, scid mice; details: 2 mg/kg twice weekly
# Procedure: (§1) Antibody treatment with 2 mg/kg B11 or control IgG1 was started at Day 1 and was continued on a twice-weekly intraperitoneal dosing regimen. Mice were sacrificed when tumor sizes reached the ethical limit.
# RPMI-8226 myeloma cells = assay: Subcutaneous scid myeloma xenograft, RPMI-8226; format: in vivo, scid mice; details: 2 mg/kg twice weekly
# Procedure: as §1
# [2] = Serum antibody levels of treated xenografted mice (ELISA); format: in vivo; details: serum at end of experimentation
# Procedure: We next performed a dose-titration experiment to establish IgG B11 in vivo potency and the minimal dose achieving maximal anti-tumor activity, using the scid/ARH-77 model system. […] Mouse serum antibody trough concentrations were determined by ELISA at the end of experimentation. Trough antibody concentrations were then plotted against percent of maximal in vivo anti-tumour activity, and against percent of maximal ICAM-1 receptor occupancy and tumour cell PCD at corresponding antibody concentrations in vitro (FIGS. 3C, 3D, 3E, 3F and 3G). Strikingly, a near perfect correlation between antibody concentration and in vitro tumour cell receptor occupancy, in vitro tumor cell PCD, and in vivo anti-tumour activity was observed, consistent with ICAM-1 dependent direct cell cytotoxicity underlying in vivo anti-tumour activity.
molecule,measurement,setting,value
B1,binding to murine FcγRIV,mouse FcγRIV,strong binding
same,survival of tumor bearing mice,Daudi cells,prolonged survival of tumor bearing mice
same,tumor growth,Daudi cells,"significantly and equally efficaciously compared to rituximab, prevented tumor growth"
same,ADCC of target tumor cells,[1]; listed as B11,mediated FcγRIIIA-dependent ADCC
same,ADCC of target tumor cells,[1]; listed as IgG B11 IgG1,mediated ADCC of target tumor cells
same,reduction of myeloma tumor growth,EJM myeloma cells,98%
same,reduction of myeloma tumor growth,RPMI-8226 myeloma cells,96%
same,In vivo IgG Levels,[2]; Dose 0.02 mg/kg,0.06 ± 0.02 µg/mL
same,In vivo IgG Levels,[2]; Dose 0.2 mg/kg,1.2 ± 0.4 µg/mL
same,In vivo IgG Levels,[2]; Dose 2 mg/kg,20 ± 2.9 µg/mL
